The supplement of paper PMC12042874
± gives the uncertainty stated by the source.

assay: amyloid nucleation score (Sup35N fusion, yeast selection) (log enrichment); library NNK2; higher = more nucleation; inactive = no reads after selection
Summary of the method: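 Nucleation score is defined as the DiMSum log enrichment of output over input reads, with centring on the mode score of non-aggregating sequences. A minimum of 100 input reads was required for each sequence. Reads came from Illumina sequencing of plasmid inserts from psi-negative yeast expressing Sup35N fused to peptides of 20 random codons, induced with 100 μM copper sulfate for 24 hours and grown 7 days at 30°C on medium lacking adenine and uracil.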

Row | Substance | amyloid nucleation score
1 | RLPARLGSS | 0.23 ± 0.25
2 | WARCHVLA | -0.292 ± 0.55
3 | FAKIRGLITFVLQMWVTVYV | -0.278 ± 0.45
4 | FISSADLVTNMPRI | -0.8 ± 0.31
5 | NFKNATIAFIGNMTMIVPRG | 8.291 ± 0.038
6 | TLLIMCGSISHSFPSECHWL | 0.716 ± 0.15
7 | ITGTFF | 1.99 ± 0.084
8 | NGGTMLMRLDRS | -0.216 ± 0.63
9 | TLNMNVSFPIRRAHIYEMLI | 0.83 ± 0.48
10 | QNLSSLFKVYGTSSC | -0.953 ± 0.38
11 | VGVYICFILGH | 3.56 ± 0.14
12 | ALNSPFMLQFLDWL | 0.11 ± 0.76
13 | VYRSRAVHATSLGSERFNTD | 5.17 ± 0.1
14 | VFVRRVGPQLFDPRSSNGVD | 0.951 ± 0.81
15 | GLPYVSMINLHASYTERMVW | -0.687 ± 0.64
16 | LFIYLGDQSSNKVKPTHFRE | -0.497 ± 0.33
17 | FIDDSDFKYSYSAQFVCLID | 4.91 ± 0.1
18 | GSAGNYRRY | 0.167 ± 0.56
19 | GIMGDGGGHALWTEEELKVR | 1.01 ± 0.23
20 | IGILSREGYWGGNRFLGYQL | -1.32 ± 0.62
21 | HSLSWKCV | 0.346 ± 0.74
22 | ISPLLNVYRDYWLYMF | -1.37 ± 0.75
23 | RTSRVKVR | 4.13 ± 0.074
24 | YQMVTCWAYDSQDIGSWCAG | -0.012 ± 1.1
25 | LIAFMRF | 5.688 ± 0.042

Row | Substance | amyloid nucleation score
26 | KVVGGLVLHGSL | inactive
27 | LLKLCRRIKDATFDSLPGCA | 0.93 ± 0.31
28 | VWKNPYIGVHLLHDLKS | -0.391 ± 0.21
29 | MPTIRNWVCW | 0.639 ± 0.47
30 | FLSCQTYRKNQADNADASSI | -0.076 ± 0.56
31 | LGICPFNGSLRS | -1.65 ± 1.1
32 | LRFCSSSVISGLQFSSRVVE | -0.029 ± 1.1
33 | VNLPD | 0.15 ± 0.56
34 | RLGWNGE | -0.709 ± 0.49
35 | IYRCIYRTPMLLGLYFNGPV | -0.791 ± 0.55
36 | LPTWYVLVPLMDYIYYLFKE | -0.536 ± 1
37 | VRYDCYMPDMCFSRDHCWFE | 0.079 ± 0.55
38 | EFVISKNSVPSPCRCW | 0.382 ± 0.8
39 | YFVVCAHPESYSIINRFATV | 6.311 ± 0.057
40 | SFFVRKLIGNSYHN | 1.89 ± 0.17
41 | QSYMSGKYVVLVQRGEVFSF | -1.21 ± 0.49
42 | RCIYWHVTVIFIMDIWVRTY | 0.415 ± 0.17
43 | YYHYYFGFCDNM | 0.664 ± 0.33
44 | NCWVVSQYTVVN | -0.77 ± 0.79
45 | VAWLW | 0.909 ± 0.21
46 | SVIRMLYD | -0.113 ± 0.45
47 | MPQSSRFCTNSFGNRHRRSW | -0.343 ± 1.1
48 | TSNRTTNSLLMCDKLRNTSV | -0.345 ± 0.25
49 | LSRDVHCSRFSHREGLITRT | 0.767 ± 0.74
50 | FCMVGLCMCGRQEMCGSTDS | 5.99 ± 0.062

Row | Substance | amyloid nucleation score
51 | TCATTDGVR | 1.04 ± 0.21
52 | QVVEYN | -0.047 ± 0.33
53 | NFYKEFGGMIAYLDKILREE | -1.13 ± 0.55
54 | ACRLVYNLGRVHLGNHSDIL | -0.225 ± 1
55 | DHNGVKSTSHKSSFFMSTGR | 0.056 ± 0.39
56 | VKMMWNCSLVDALATRGNVV | 0.505 ± 0.54
57 | LRPLL | -0.912 ± 0.93
58 | SVVLCTAFVQPC | 0.158 ± 0.45
59 | LWRGRIFLICFRSRDSNMCL | inactive
60 | SKCNGFVVALMLVFTSSELD | inactive
61 | CEFLMLFREFLDW | 4.59 ± 0.055
62 | TVASTYVLVTCHRAFDQS | 3.46 ± 0.079
63 | VEFTRVGVRLSHDVPVHDRW | 3.95 ± 0.066
64 | LYSESIVLFAYGFNGDGGLY | -0.67 ± 0.29
65 | WIFSPGLMDFVEHDNLEWIA | 0.67 ± 0.44
66 | AFLNFTDRKSQWKVMVIEFL | 3.3 ± 0.096
67 | LELHGT | -1.22 ± 0.45
68 | INSITKSVGGQRGARRY | 2.25 ± 0.21
69 | FMLNYERL | -1.08 ± 0.42
70 | TYKCLTRATKGRNHVFRFCV | 1.08 ± 0.15
71 | IKVDSAWETIAVVM | 0.246 ± 0.33
72 | RAACFSAAHRTDWTWPDGDM | 2.49 ± 0.19
73 | CCPASYMQYEFLGRMSGGCW | 2.82 ± 0.15
74 | SPFTTSRDFMHRTPLLCDTC | 1.32 ± 0.33
75 | EDLYFTTGMLAKKCGPQGMG | 5.04 ± 0.069

Row | Substance | amyloid nucleation score
76 | VNMYSWVKVCWEILYTDRAG | -0.906 ± 0.41
77 | VIDHLRCIETSVWGVVVWRI | -0.148 ± 0.35
78 | ACNFQVCGWERQSSRFR | 3.14 ± 0.087
79 | YFNGERFTRFISMEE | -1.21 ± 1.1
80 | SWSCRMEADSGFPAFIGAKK | -0.47 ± 1
81 | NVTGYFSSYKVVGRMESSYV | 1.73 ± 0.19
82 | SCSWCMLVPRGGVGVPKG | 0.335 ± 0.22
83 | DGFRTYIVRWEATVANSLVV | 0.736 ± 0.52
84 | DRARRVVIIWVYLIDRVNVR | 0.004 ± 1.1
85 | KSRVVMRTHAHSALWKWPGR | 1.64 ± 0.28
86 | KVSWEDSFLFLCQCRRDCTL | 8.707 ± 0.039
87 | CFPSILSRFINLRCPGRSSY | inactive
88 | NMVLWWPIMYHLAWRLGHDV | -0.137 ± 0.38
89 | SCGYFITKKEH | -0.679 ± 0.3
90 | VYDQIYGRLANRLVHNKWRR | -0.341 ± 0.55
91 | QGLGTRLRDRLTVYCRFTAF | -0.69 ± 0.61
92 | DAFWCYVDTLYMNRPSQ | 0.988 ± 0.29
93 | ECLTLFRTGRM | 5.306 ± 0.037
94 | WCRAWGDFIMVKSLGLKCIA | -0.1 ± 0.49
95 | YICVTMPVWIH | 7.536 ± 0.042
96 | RDNFLNEY | -0.953 ± 0.36
97 | INISCLKVGALSKGTRLFR | 2.14 ± 0.068
98 | WCLMQSFDGLSDME | 0.561 ± 0.62
99 | KERLAFCMYGLGVDYVTFGN | 0.497 ± 0.57
100 | HWYLRSV | 0.239 ± 0.43

Row | Substance | amyloid nucleation score
101 | RVTYDFFILWC | 4.465 ± 0.044
102 | VIPYVIQSYWMGMN | -1.56 ± 0.75
103 | MTRNGDLFS | 0.657 ± 0.4
104 | TECYLDVHLLHCRCALRSTP | 6.83 ± 0.069
105 | RDSKFRMPLKWKAFFMGVER | 1.17 ± 0.38
106 | KYFVTNRVVWTDRVSIFGV | 1.07 ± 0.53
107 | YMVMA | -0.67 ± 1.1
108 | VIWYLRMVSTCNERGVKGIE | inactive
109 | LAVKRMFSNFIFKAGTRNIW | inactive
110 | NAKCNSTGKTCQFGCQYP | 1.51 ± 0.39
111 | NFKTI | inactive
112 | PVWKVERRNSHLLKDIGNSI | 0.325 ± 0.57
113 | QLKSFR | inactive
114 | QSFNVCCWLGEMDVLYSSIT | 8.997 ± 0.038
115 | MDKCETEMYIMSAHVFRRLW | 6.229 ± 0.048
116 | KVVCLMVISCCLPLAPHRGW | 3.53 ± 0.11
117 | WSDLFRRTMCGVW | 0.624 ± 0.66
118 | QRLVSLYFRLSDGHMD | 3.3 ± 0.06
119 | VMVGLALYLKARGSNVDCGL | 3 ± 0.17
120 | NLCHSNKCLNSRFSITHWV | 0.246 ± 0.8
121 | LNLQSLTSHTVKGL | 0.147 ± 0.54
122 | RRIVGFFANDRTLIYLVGYI | -0.902 ± 0.49
123 | QWWRYS | 1.17 ± 0.41
124 | TAKDAFMFQGLASLS | inactive
125 | IDNEMYFAHGIRGDSLL | inactive

Row | Substance | amyloid nucleation score
126 | QGELYRSANLLFVAEVSSWR | 0.561 ± 0.64
127 | FSLCDILVLVNTNAGWAAFD | -0.352 ± 1
128 | YQSDK | inactive
129 | CLRGSR | 0.03 ± 0.2
130 | EKRMNLVHYREYLPPFKRSN | -0.403 ± 1
131 | STWDESWLHVLRWREFATLQ | 1.11 ± 0.22
132 | ATRCFSNWDTSACYMWKC | 8.074 ± 0.061
133 | FFFVWESNPSIWDGTFTVEV | 0.21 ± 0.46
134 | IRDRPHWAGGHLGWPYMWS | 4.1 ± 0.1
135 | RMFRFRRHSKHLEKLSSRFL | -0.222 ± 0.49
136 | GLMTYFSSVESGEHTDRNLS | -0.732 ± 0.33
137 | VTTKKHPIYTVTRRDRKPGD | 0.524 ± 0.32
138 | IRSRLFFALLCVYS | -0.861 ± 0.41
139 | ISDRSTHQASVLTFSPPDFY | inactive
140 | SMYSLTVVNLRVRFLVVWGW | 0.615 ± 0.5
141 | GINVCFKHTMV | 3.28 ± 0.062
142 | KDRSQGKCLLGQQRQ | 0.782 ± 0.15
143 | GFCQASSWM | -0.109 ± 0.76
144 | ATVRLHNGFG | 0.127 ± 0.31
145 | LSSLTLSMVA | 0.561 ± 0.62
146 | ASAEQRNLCIEFASDQLYVI | -0.478 ± 0.38
147 | GTSMCRELNVHNAWRGIHMG | 0.615 ± 0.29
148 | SYIICELNQLLGFKNWHKTC | 2.83 ± 0.068
149 | RWQCLVEHMRSANLGVRRGP | 0.074 ± 0.41
150 | IFWAYAICCIYGLRGCRGEY | 6.64 ± 0.084

Row | Substance | amyloid nucleation score
151 | MRGGLGV | 0.492 ± 0.49
152 | IVTINGNN | -0.51 ± 0.44
153 | RLFRFPNVLHDLICNMYICA | 6.024 ± 0.049
154 | QLHSLKKKRKY | -0.625 ± 0.28
155 | GLKNRVWL | 1.05 ± 0.26
156 | MWINHDPGWRCYYLYFPFL | 3.59 ± 0.074
157 | VLCTRRLPLYHSSNDQ | 0.128 ± 0.32
158 | AQFVKWAVNLLGSRYSWYEQ | inactive
159 | NLECLYKLFPDFASLIRLCV | 0.185 ± 0.8
160 | RFSCAEYVPVMT | 0.298 ± 0.56
161 | IDLFFAYSHRV | 4.501 ± 0.044
162 | SFHIVKDYNSDMYYFFNELV | inactive
163 | CGFIVKTAWGLVLATLGATY | 2.54 ± 0.11
164 | CRGVNVHDSSW | -0.321 ± 0.22
165 | YAIGDNAA | 0.111 ± 0.32
166 | FLAILWLFMLGKVSGCVDKW | -0.155 ± 0.49
167 | YSIFHFYLKGFGSTW | inactive
168 | NASTRSGNYQFARHGLGYRR | 1.44 ± 0.17
169 | WCGYMNSSIKSRYSTYTFRS | 2.13 ± 0.088
170 | SRNTVLYISLSFLTPYISCC | 8.221 ± 0.028
171 | GSMVLPIICNKIAYRSCSTI | -0.828 ± 0.56
172 | YCDCPVNICRRFPGHEHRGV | inactive
173 | IVDSFTYTDVSTGSYLFG | -1.42 ± 0.75
174 | MYSISVNMKNSFRNL | 0.566 ± 0.66
